This note sets out measurements from article PMC11821514 (Nature Cell Biology, 2025).

For one test, the target named is T1, GST–Atg11^685–1178 (budding yeast, UniProt Q12527 685-1178).
T1 construct: also called C-terminal fragment of Atg11; not shown: GST, N-terminal, kept
T1 sequence (looked up): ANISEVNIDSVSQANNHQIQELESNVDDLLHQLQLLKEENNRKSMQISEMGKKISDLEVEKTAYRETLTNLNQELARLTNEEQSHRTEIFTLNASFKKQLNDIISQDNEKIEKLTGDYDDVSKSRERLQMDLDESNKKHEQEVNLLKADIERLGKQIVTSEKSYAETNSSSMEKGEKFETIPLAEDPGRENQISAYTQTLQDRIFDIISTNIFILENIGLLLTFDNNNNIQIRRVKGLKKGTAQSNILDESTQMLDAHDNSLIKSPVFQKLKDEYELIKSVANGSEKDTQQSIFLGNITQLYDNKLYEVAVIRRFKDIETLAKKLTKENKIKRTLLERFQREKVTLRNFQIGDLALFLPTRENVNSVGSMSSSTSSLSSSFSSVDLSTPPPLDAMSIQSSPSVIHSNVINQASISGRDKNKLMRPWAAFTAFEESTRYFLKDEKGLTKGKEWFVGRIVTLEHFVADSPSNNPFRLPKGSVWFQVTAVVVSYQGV
The test can be described thus: pull-down; GST fusions on GSH beads incubated with purified recombinant Atg19^3D, 20 min at room temperature; six washes with GST-wash buffer containing 0.02% Tween-20; immunoblotting. The conditions noted are these: both partners purified. For orientation: In western blotting, separated proteins are transferred to a membrane and probed.

A further test has as its target T2, StrepII–GFP–Atg11 (budding yeast, UniProt Q12527 1-1178).
T2 construct: Atg11, budding yeast; the ATG11 ORF was subcloned with an N-terminal StrepII–GFP tag into a pLIB vector; Used as preformed condensates (20 min at room temperature in 20 mM HEPES pH 7.5, 150 mM NaCl, 5 mM DTT); also called GFP–Atg11 condensates; GFP–Atg11 droplets; source: Sf9 insect cells, baculovirus, purified (Strep-TactinXT); not shown: GFP, N-terminal, kept
T2 sequence (looked up): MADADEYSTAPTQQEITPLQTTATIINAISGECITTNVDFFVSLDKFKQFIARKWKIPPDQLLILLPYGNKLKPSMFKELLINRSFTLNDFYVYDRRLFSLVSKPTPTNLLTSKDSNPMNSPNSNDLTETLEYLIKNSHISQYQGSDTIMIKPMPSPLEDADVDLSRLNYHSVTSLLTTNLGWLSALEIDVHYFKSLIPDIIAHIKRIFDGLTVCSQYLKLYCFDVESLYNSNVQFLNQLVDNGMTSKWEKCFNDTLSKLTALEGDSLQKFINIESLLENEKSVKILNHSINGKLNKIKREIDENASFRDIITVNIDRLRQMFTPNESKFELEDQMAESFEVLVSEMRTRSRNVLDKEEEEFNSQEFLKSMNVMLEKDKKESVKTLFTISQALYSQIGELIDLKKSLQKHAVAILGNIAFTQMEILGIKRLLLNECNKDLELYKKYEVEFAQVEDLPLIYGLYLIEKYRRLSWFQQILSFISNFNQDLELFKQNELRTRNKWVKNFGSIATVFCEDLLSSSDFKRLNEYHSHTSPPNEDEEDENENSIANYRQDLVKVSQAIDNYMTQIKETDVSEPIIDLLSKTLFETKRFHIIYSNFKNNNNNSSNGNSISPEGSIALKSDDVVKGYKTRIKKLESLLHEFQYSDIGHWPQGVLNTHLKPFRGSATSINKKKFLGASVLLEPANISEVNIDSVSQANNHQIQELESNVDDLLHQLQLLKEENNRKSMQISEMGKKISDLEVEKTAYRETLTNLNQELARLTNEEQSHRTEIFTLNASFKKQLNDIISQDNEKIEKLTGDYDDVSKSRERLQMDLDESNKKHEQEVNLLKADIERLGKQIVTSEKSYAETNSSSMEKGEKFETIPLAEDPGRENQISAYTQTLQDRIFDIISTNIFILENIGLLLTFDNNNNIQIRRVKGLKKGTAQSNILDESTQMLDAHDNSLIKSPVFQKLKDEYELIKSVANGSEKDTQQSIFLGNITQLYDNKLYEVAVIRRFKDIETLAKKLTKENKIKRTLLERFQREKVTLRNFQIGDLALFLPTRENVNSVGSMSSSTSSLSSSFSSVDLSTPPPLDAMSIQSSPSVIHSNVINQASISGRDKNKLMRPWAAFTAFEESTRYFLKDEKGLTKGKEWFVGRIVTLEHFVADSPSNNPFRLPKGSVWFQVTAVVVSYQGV
The test can be described thus: bead binding assay read by fluorescence microscopy; GST–BFP fusion on GSH beads incubated with preformed GFP–Atg11 condensates (purified by the methods and results, Sf9 lysate by the legends), 20 min at room temperature; imaged before and after eight washes with 20 mM HEPES pH 7.5, 150 mM NaCl, 5 mM DTT. Particulars: both partners purified.

B1: Atg19^3D (natural protein, budding yeast, UniProt P35193 1-415, looked up)
chain: MNNSKTNQQMNTSMGYPLTVYDECNKFQLIVPTLDANIMLWCIGQLSLLNDSNGCKHLFWQPNDKSNVRILLNNYDYGHLFKYLQCQRKCSVYIGEGTLKKYNLTISTSFDNFLDLTPSEEKESLCREDAHEDPVSPKAGSEEEISPNSTSNVVVSRECLDNFMKQLLKLEESLNKLELEQKVTNKEPNHRISGTIDIPEDRSELVNFFTELKTVKQLEDVFQRYHDYERLSQECDSKTEIASDHSKKETKIEVEPPNERSLQITMNQRDNSLYFQLFNNTNSVLAGNCKLKFTDAGDKPTTQIIDMGPHEIGIKEYKEYRYFPYALDLEAGSTIEIENQYGEVIFLGKYGSSPMINLRPPSRLSAESLQASQEPFYSFQIDTLPELDDDDIISTDISLSYDGDDNEKALTWEEL
notes: Atg19, budding yeast, phospho-mimetic mutant S390D, S391D, S396D; also called purified recombinant Atg19^3D; source: E. coli BL21(DE3), expressed as GST–Atg19^3D from pGEX-4T.1, purified (GSH beads, thrombin elution, Superdex200); not shown: GST, N-terminal, cleaved
As to B1, the binding result with GST–Atg11^685–1178 is listed as “binds”.

B2: GST–mTagBFP–Atg19^3D (natural protein, budding yeast, UniProt P35193 1-415, looked up)
chain: B1 chain
notes: Atg19, budding yeast, phospho-mimetic mutant S390D, S391D, S396D; also called GST–BFP–Atg19^3D; Atg19^3D-decorated beads; not shown: GST, N-terminal, kept; mTagBFP, N-terminal, kept
As for B2, in the test with StrepII–GFP–Atg11, the binding result is on record as “binds”.

B3: GST–BFP–Vac8 (natural protein, budding yeast, UniProt P39968 1-578, looked up)
chain: MGSCCSCLKDSSDEASVSPIADNEREAVTLLLGYLEDKDQLDFYSGGPLKALTTLVYSDNLNLQRSAALAFAEITEKYVRQVSREVLEPILILLQSQDPQIQVAACAALGNLAVNNENKLLIVEMGGLEPLINQMMGDNVEVQCNAVGCITNLATRDDNKHKIATSGALIPLTKLAKSKHIRVQRNATGALLNMTHSEENRKELVNAGAVPVLVSLLSSTDPDVQYYCTTALSNIAVDEANRKKLAQTEPRLVSKLVSLMDSPSSRVKCQATLALRNLASDTSYQLEIVRAGGLPHLVKLIQSDSIPLVLASVACIRNISIHPLNEGLIVDAGFLKPLVRLLDYKDSEEIQCHAVSTLRNLAASSEKNRKEFFESGAVEKCKELALDSPVSVQSEISACFAILALADVSKLDLLEANILDALIPMTFSQNQEVSGNAAAALANLCSRVNNYTKIIEAWDRPNEGIRGFLIRFLKSDYATFEHIALWTILQLLESHNDKVEDLVKNDDDIINGVRKMADVTFERLQRSGIDVKNPGSNNNPSSNDNNSNNNDTGSEHQPVEDASLELYNITQQILQFLH
notes: Vac8, vacuolar membrane protein, budding yeast; The results text says GST–Vac8, the legend GST–BFP–Vac8; also called GST–Vac8; recombinant GST–Vac8; not shown: GST, N-terminal, kept; BFP, N-terminal, kept
B3: the binding result with StrepII–GFP–Atg11 is recorded as “binds”.
